Laboratory results reported in article PMC5462532.

Tests used:
[1] = target: UbcH7 (wild type, for ITC) (human) (UniProt P68036); assay: ITC; 250-300 μM RING1 constructs in the syringe, 25-30 μM E2 or E2∼Ub in the cell; 293 K; 25 mM Hepes pH 7.5, 150 mM NaCl, 0.5 mM TCEP; 1:1 fit; repeated twice, averages
[2] = target: UbcH7 (C17S, C86K, C137S)∼Ub conjugate (for ITC) (human) (UniProt P68036); assay: as above
[3] = target: HHARI of the HHARI/UbcH7 complex analysed by SEC-MALS (human) (UniProt Q9Y4X5); assay: SEC-MALS; HHARI/UbcH7 complex at 1.5 mg/ml in 25 mM MOPS, 150 mM NaCl, pH 7.5; Superose 6 Increase 3.2/300; room temperature

Substance | Kd [1] [µM] | dH [1] [kcal/mol] | stoichiometry N [1] | Kd [2] [µM] | dH [2] [kcal/mol] | stoichiometry N [2] | stoichiometry N [3]
HHARI RING1 (aa 177-270), wild type (from UniProt Q9Y4X5 177-270) (domain or fragment) | 0.294 | 4.3 | 1 | 0.116 | 3.7 | 1 | –
UbcH7 of the HHARI/UbcH7 complex analysed by SEC-MALS (from UniProt P68036 1-154) (enzyme) | – | – | – | – | – | – | 1
